Reference: patent publication US5013542A, “Method to inhibit adhesion of disease-causing microorganisms to teeth” (Forsyth Dental Infirmary for Children, priority 1988, dated 1991)

Tests used:
Assay in all cases: Adhesion of radioactively labeled bacteria to treated hydroxyapatite (HA)
Assay type in all cases: cell-based
Actinomyces viscosus = settings: HA treated with the protein/peptide, saliva-treated HA = 100%
Description: (§1) PRP-1 and PRP-1(Tl) were investigated for their abilities to promote adhesion of bacteria to HA. Essentially, the method is to treat HA samples with nothing (negative control), saliva (positive control), or the respective proteins or peptides. The excess agent is removed by washing, and suspensions of radioactively labeled bacteria are added to the treated HA. After a suitable time, the excess bacteria are removed by washing and those remaining adsorbed to the HA are counted in a scintillation counter. In the table of results, bacterial adsorption to saliva-treated HA is considered to be 100%, and adsorption to PRP-1 or PRP-1(Tl)-treated HA expressed as a percentage of this reference value. This approach is necessary because of the diverse behaviors of different bacteria.

Bacteroides gingivalis = system: Bacteroides gingivalis
Description: as §1

Streptococcus mitis = settings: HA treated with the protein/peptide, saliva-treated HA = 100%
Description: as §1

Streptococcus mutans = settings: HA treated with the protein/peptide, saliva-treated HA = 100%
Description: as §1

Streptococcus sanguis = system: Streptococcus sanguis
Description: as §1

B1: PRP-1: acidic proline-rich phosphoprotein derived from human saliva, 150 residues; sequence shown in the diagram (protein, UniProt P02810 17-166, looked up)
Salivary acidic proline-rich …: QDLDEDVSQEDVPLVISDGGDSEQFIDEERQGPPLGGQQSQPSAGDGNQNDGPQQGPPQQGGQQQQGPPPPQGKPQGPPQQGGHPPPPQGRPQGPPQQGGHPRPPRGRPQGPPQQGGHQQGPPPPPPGKPQGPPPQGGRPQGPPQGQSPQ
- PERCENT ADHESION COMPARED TO SALIVA-TREATED HA (Actinomyces viscosus): 105%
- adhesion of organism to treated HA (in words) (Bacteroides gingivalis; B. gingivalis, versus saliva-treated HA): higher than adhesion to saliva-treated HA
- PERCENT ADHESION COMPARED TO SALIVA-TREATED HA (Bacteroides gingivalis; Bacteroides gingivalis, HA treated with the protein/peptide, saliva-treated HA = 100%): 335%
- PERCENT ADHESION COMPARED TO SALIVA-TREATED HA (Streptococcus mitis): 38%
- PERCENT ADHESION COMPARED TO SALIVA-TREATED HA (Streptococcus mutans): 81%
- adhesion of organism to treated HA (in words) (Streptococcus sanguis; S. sanguis, versus saliva-treated HA): higher than adhesion to saliva-treated HA
- PERCENT ADHESION COMPARED TO SALIVA-TREATED HA (Streptococcus sanguis; Streptococcus sanguis, HA treated with the protein/peptide, saliva-treated HA = 100%): 144%
